Assays:
[1] = target: T1, rat MOG (rMOG) expressed on HEK293F cells (rat, UniProt Q63345 28-245); experiment: flow cytometry on HEK293 cells transiently expressing rat MOG; antibody at 10 µg/mL, RPE-labelled goat anti-human antibody; negative control anti-AVM antibody
T1 construct: also called rMOG/HEK293F
T1 sequence: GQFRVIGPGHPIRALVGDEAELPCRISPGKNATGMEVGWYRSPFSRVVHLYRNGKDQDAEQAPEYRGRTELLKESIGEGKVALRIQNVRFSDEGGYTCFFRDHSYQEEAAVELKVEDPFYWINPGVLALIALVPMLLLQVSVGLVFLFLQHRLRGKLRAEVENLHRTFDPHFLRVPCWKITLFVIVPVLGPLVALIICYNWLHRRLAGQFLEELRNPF
Experimental: (§1) rMOG/HEK293F, mMOG/IEK293F, cMOG/HEK293 and hMOG/HEK293 cells were suspended in a Staining Buffer (SB) of PBS containing 0.1% NaN₃ and 1% FBS each at a concentration of 5×10⁵ cells/mL and dispensed to a round-bottom 96-well plate (manufactured by Becton Dickinson).
(§2) After centrifugation (2000 rpm, 4° C., two minutes), the supernatants were removed, and the antibodies obtained in Example 6 at 10 μg/mL were added to the pellets. After suspending the pellets, the plate was left to stand at ice temperature for 30 minutes. The supernatants were removed after further centrifugation (2000 rpm, 4° C., two minutes), and the pellets were washed with SB. Then, 1 μg/mL RPE fluorescently labeled goat anti-human antibody (manufactured by […]) was added, and the plate was incubated at ice temperature for 30 minutes.
(§3) After washing with SB, the cells were suspended in SB, and the fluorescence intensities of the cells were measured using a flow cytometer FACS CANTO II (manufactured by Becton Dickinson). As the negative control, an anti-AVM antibody was used.

[2] = target: T2, human MOG (hMOG) expressed on HEK293, Expi293F or L929 cells (human, UniProt Q16653 30-247); experiment: flow cytometry on HEK293 cells transiently expressing human MOG; antibody at 10 µg/mL, RPE-labelled goat anti-human antibody; negative control anti-AVM antibody
T2 construct: also called hMOG/HEK293; hMOG/HEK293F
T2 chain: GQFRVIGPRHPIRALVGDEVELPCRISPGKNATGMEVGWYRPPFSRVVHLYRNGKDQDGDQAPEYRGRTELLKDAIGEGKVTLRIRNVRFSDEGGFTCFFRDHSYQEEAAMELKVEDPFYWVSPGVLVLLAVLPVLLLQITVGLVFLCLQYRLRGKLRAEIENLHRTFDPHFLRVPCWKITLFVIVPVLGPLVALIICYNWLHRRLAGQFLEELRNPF
Experimental: as §1, §2, §3

[3] = target: T3, extracellular domain protein of rat MOG to which GST is added at the C-terminus (rMOG-GST) (rat); experiment: SPR Biacore T-100, antibody captured, rMOG-GST analyte
T3 construct: whole construct entry
Experimental: (§4) The antibodies were immobilized on CM5 sensor chips using a Human antibody Capture kit, and the binding abilities were evaluated using rMOG-GST produced in Example 4 as an analyte. The obtained sensorgrams were analyzed with BIA evaluation software, and the dissociation constants (KD values) were thus calculated.

[4] = target: T4, cynomolgus monkey MOG (cMOG) expressed on HEK293 cells (cynomolgus monkey, UniProt Q9BGS7 30-247); experiment: flow cytometry on HEK293 cells transiently expressing cynomolgus monkey MOG; antibody at 10 µg/mL, RPE-labelled goat anti-human antibody; negative control anti-AVM antibody
T4 construct: also called cMOG/HEK293
T4 sequence: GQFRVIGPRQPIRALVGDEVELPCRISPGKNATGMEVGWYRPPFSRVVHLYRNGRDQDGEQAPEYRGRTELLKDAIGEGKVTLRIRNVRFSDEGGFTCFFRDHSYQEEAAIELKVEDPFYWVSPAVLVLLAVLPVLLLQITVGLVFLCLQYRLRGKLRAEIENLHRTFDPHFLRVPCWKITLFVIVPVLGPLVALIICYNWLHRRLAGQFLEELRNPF
Experimental: as §1, §2, §3

[5] = target: T5, extracellular domain protein of mouse MOG to which GST is added at the C-terminus (mMOG-GST) (mouse); experiment: SPR, antibody captured, mMOG-GST analyte; paragraph 625: KD could not be determined as a unique value
T5 sequence (chain, as listed by the source limits assumed): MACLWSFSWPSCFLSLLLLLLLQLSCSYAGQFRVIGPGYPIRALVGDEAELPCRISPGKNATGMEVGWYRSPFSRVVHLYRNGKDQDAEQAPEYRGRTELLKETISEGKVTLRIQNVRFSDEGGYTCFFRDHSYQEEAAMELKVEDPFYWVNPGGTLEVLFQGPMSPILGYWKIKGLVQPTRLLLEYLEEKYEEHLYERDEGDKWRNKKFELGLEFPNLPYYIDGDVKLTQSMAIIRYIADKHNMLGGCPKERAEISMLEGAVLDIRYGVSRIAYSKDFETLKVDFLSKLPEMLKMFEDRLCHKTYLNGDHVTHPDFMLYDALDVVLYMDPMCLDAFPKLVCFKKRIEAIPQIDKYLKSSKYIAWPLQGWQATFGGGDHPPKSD

[6] = target: T6, extracellular domain protein of human MOG to which GST is added at the C-terminus (hMOG-GST) (human); experiment: SPR, antibody captured, hMOG-GST analyte; KD not unique (ka outside range)
[7] = target: T6, extracellular domain protein of human …; experiment: SPR, antibody captured, hMOG-GST analyte; ka outside the measurement range
[8] = target: T5, extracellular domain protein of mouse …; experiment: SPR, antibody captured, mMOG-GST analyte; paragraph 625: ka of MOG01 scFv-hG4PE outside the measurement range
[9] = target: T6, extracellular domain protein of human …; experiment: SPR, antibody captured, hMOG-GST analyte
Experimental: as §4
The results of evaluation of the affinities to human MOG are shown in Table 14, and the results of evaluation of the affinities to mouse MOG are shown in Table 15.

[10] = target: T5, extracellular domain protein of mouse …; experiment: SPR, antibody captured, mMOG-GST analyte
[11] = target: T4, cynomolgus monkey MOG (cMOG) expressed …; experiment: flow cytometry on HEK293 cells transiently expressing cynomolgus monkey MOG; RPE-labelled goat anti-human antibody; negative control anti-AVM antibody
[12] = target: T3, extracellular domain protein of rat MOG …; experiment: SPR as in Example 8 (antibody captured, rMOG-GST analyte)
Experimental: as §4

[13] = target: T3, extracellular domain protein of rat MOG …; experiment: as above; remark: listed apart in the source
Experimental: as §4
Binding of the bispecific antibodies obtained in Example 6 and Example 16 to MOG was evaluated by the same method as that of Example 8.

[14] = target: T2, human MOG (hMOG) expressed on HEK293, …; experiment: flow cytometry, hMOG/L929 cells
Description: pEF6_hMOG obtained in Example 5 was introduced to mouse connective tissue-derived fibroblast L929 cells [American Type Culture Collection (ATCC) No.: CCL-1] using HilyMax (manufactured by Dojindo Laboratories). The gene-transfected cells were selected using an antibiotic substance, Blasticidin (manufactured by Invitrogen) and then cloned by the limiting dilution method. Using the L929 cells expressing hMOG on the cell surface (abbreviated as hMOG/L929 below), the reactivities of the bispecific antibodies were analyzed by the method described below.
The hMOG/L929 cells were suspended in a Staining Buffer (SB) of PBS containing 0.1% NaN₃ and 1% FBS and dispensed to a round-bottom 96-well plate (manufactured by Becton Dickinson). […] After suspending the pellets, the plate was left to stand at ice temperature for 30 minutes. The supernatants were removed after further centrifugation (2000 rpm, 4° C., two minutes), and the pellets were washed with SB. Then, 1 μg/mL RPE fluorescently labeled goat anti-human antibody (manufactured by Southern Biotech) was added, and the plate was incubated at ice temperature for 30 minutes. After washing with SB, the cells were suspended in SB, and the fluorescence intensities of the cells were measured with a flow cytometer FACS CANTO II (manufactured by Becton Dickinson). The results are shown in FIGS. 12A to 12C and FIGS. 13A and 13B.

B1: MOG01 antibody (anti-MOG human IgG antibody expressed from N5LG4PE_MOG01) (antibody, V domains shown)
VH: QVQLQQSGAGLLKPSETLSLTCAVSGGSFSGYYWTWIRQRPGKGLEWIGEINHRGSTDYNPSLKSRVTMSIDTSKSQFSLNLKSVTAADTAVYYCARAAWGSCYDGTCYPAEYFQYWGQGTLVTVSS
VL: QSALTQPASVSGSPGQSITISCTGTSRDVGGYNYVSWYQQHPGKAPKLMIYDVNNRPSGVSNRFSGSKSGNTASLTISGLQAEDEADYFCSSYTSSSTPVVFGGGTKLTVL
notes: also called anti-MOG01 human IgG antibody; MOG01 IgG4PE
In the case of B1, the binding result [1] is reported as “binds”, the binding result [2] is reported as “binds” and the Kd [3] is reported as 6.6 nM. For the same binder, the koff [3] was 0.00095 s⁻¹, the kon [3] was 140000 M⁻¹ s⁻¹ and the binding result [4] was “binds”.

B2: MOG01 scFv-hG4PE (Fc fusion)
chain: QVQLQQSGAGLLKPSETLSLTCAVSGGSFSGYYWTWIRQRPGKGLEWIGEINHRGSTDYNPSLKSRVTMSIDTSKSQFSLNLKSVTAADTAVYYCARAAWGSCYDGTCYPAEYFQYWGQGTLVTVSSGGGGSGGRASGGGGSQSALTQPASVSGSPGQSITISCTGTSRDVGGYNYVSWYQQHPGKAPKLMIYDVNNRPSGVSNRFSGSKSGNTASLTISGLQAEDEADYFCSSYTSSSTPVVFGGGTKLTVL
B2 was tested, and the Kd [5] was 6.9 nM, the Kd [6] was 3.6 nM and the kon [7] was 4.1e+06 M⁻¹ s⁻¹. The kon [8] was 5.9e+06 M⁻¹ s⁻¹, the koff [9] was 0.015 s⁻¹ and the koff [10] was 0.04 s⁻¹.

B3: iMOG-3Rim1-S32 antibody (VHH-Fc expressed from N5G4PEFc_iMOG-3Rim1-S32) (Fc fusion)
chain: QVQLVESGGGLVQTGGSLRLSCAASGSMFSTMGWFRQAPGNQRELVAIMSSGGTANYADSVKGRFTISGDNVKNTVTLQMNSLNPEDTAVYYCRFTGWVKSSFSTYWGQGTQVTVSS
notes: not shown: Fc region of human IgG4PE
B3: no binding (tested: 10 µg/mL) [11].

B4: MOG14 antibody (anti-MOG human IgG antibody expressed from N5KG4PE_MOG14) (antibody, V domains shown)
VH: QVQLVQSGAEVKKPGASVKVSCQASGYTFTGDYIHWVRQAPGQGLEYLGWINPDRGFTYYTQKFQGRVTMTRDTSSNTAYMELSSLRSDDTAMYYCTRENPRAYFFDLWGQGTLVTVSS
VL: EIVLTQSPGTLSLSPGERATLSCRASQSISGSYVTWYQQKPGQAPRLLIYATSNRAIGIPDKFSGGGSGRDFTLTINRLEPEDFAVYYCQQSVSSPYTFGQGTKVEIK
For B4, the binding result [1] was “binds”, the binding result [2] was “binds” and the Kd [3] was 40 nM. The koff [3] was 0.00019 s⁻¹, the kon [3] was 4700 M⁻¹ s⁻¹ and the binding result [4] was “binds”.

B5: AVM IgG4PE(R409K)_MOG01dscFv antibody (bispecific antibody)
heavy: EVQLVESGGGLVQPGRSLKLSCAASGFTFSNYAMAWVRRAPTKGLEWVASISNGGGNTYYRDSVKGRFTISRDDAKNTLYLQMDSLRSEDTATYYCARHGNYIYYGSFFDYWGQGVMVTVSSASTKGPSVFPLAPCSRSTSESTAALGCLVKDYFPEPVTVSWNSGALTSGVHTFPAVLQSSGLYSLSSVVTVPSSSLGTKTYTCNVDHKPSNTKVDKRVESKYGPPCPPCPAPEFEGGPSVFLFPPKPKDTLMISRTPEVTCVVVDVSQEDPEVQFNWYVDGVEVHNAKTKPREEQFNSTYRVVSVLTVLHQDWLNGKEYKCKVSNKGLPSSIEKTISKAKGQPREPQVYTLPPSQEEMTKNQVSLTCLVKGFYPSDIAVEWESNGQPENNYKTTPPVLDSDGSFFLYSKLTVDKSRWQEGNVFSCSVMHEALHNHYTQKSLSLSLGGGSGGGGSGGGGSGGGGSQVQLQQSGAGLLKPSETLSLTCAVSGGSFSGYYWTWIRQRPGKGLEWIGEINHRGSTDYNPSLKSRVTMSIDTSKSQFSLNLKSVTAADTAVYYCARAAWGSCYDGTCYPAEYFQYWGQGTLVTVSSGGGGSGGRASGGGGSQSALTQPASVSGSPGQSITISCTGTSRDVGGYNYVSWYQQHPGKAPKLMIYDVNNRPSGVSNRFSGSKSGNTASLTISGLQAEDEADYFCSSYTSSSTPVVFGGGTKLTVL
light: QFVLSQPNSVSTNLGSTVKLSCKRSTGNIGSNYVSWYQQHEGRSPTTMIYRDDKRPDGVPDRFSGSIDRSSDSALLTINNVQTEDEADYFCQSYSSGINIFGGGTKLTVLGQPKAAPSVTLFPPSSEELQANKATLVCLISDFYPGAVTVAWKADSSPVKAGVETTTPSKQSNNKYAASSYLSLTPEQWKSHRSYSCQVTHEGSTVEKTVAPTECS
notes: MOG01 scFv fused to the C-terminus of anti-AVM IgG; also called pCI-AVM-hLG4PE(R409K)_MOG01scFv
Binder B5 has a Kd [12] of 200 nM, a koff [12] of 0.0046 s⁻¹ and a kon [12] of 23000 M⁻¹ s⁻¹. It also gave a Kd [13] of 200 nM, a koff [13] of 0.0049 s⁻¹ and a kon [13] of 24000 M⁻¹ s⁻¹.

B6: AVM IgG4PE(R409K)_MOG01dscFv7 antibody (bispecific antibody)
heavy: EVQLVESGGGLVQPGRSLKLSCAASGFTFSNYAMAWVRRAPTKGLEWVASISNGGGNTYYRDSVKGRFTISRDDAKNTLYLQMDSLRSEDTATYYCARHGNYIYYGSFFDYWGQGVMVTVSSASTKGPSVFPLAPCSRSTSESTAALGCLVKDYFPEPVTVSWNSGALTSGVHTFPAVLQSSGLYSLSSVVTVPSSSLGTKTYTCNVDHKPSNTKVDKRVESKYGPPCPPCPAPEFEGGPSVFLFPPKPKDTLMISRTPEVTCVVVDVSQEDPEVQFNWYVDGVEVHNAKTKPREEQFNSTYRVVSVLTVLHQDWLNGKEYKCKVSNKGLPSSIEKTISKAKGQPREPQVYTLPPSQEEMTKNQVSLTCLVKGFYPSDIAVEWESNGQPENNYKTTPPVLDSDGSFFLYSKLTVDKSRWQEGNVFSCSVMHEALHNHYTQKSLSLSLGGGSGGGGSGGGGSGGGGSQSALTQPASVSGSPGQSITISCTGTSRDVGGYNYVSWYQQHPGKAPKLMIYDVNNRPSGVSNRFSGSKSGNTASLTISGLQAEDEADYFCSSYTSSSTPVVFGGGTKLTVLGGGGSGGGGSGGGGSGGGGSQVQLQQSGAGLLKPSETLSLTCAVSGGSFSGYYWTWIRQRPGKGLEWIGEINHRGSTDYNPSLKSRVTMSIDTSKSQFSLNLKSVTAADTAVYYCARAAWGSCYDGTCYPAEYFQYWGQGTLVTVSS
light: QFVLSQPNSVSTNLGSTVKLSCKRSTGNIGSNYVSWYQQHEGRSPTTMIYRDDKRPDGVPDRFSGSIDRSSDSALLTINNVQTEDEADYFCQSYSSGINIFGGGTKLTVLGQPKAAPSVTLFPPSSEELQANKATLVCLISDFYPGAVTVAWKADSSPVKAGVETTTPSKQSNNKYAASSYLSLTPEQWKSHRSYSCQVTHEGSTVEKTVAPTECS
notes: also called pCI-AVM-hLG4PE(R409K)_MOG01scFv7
B6: binds [14].

B7: AVM IgG4PE(R409K)_MOG01dscFv3 antibody (bispecific antibody)
heavy: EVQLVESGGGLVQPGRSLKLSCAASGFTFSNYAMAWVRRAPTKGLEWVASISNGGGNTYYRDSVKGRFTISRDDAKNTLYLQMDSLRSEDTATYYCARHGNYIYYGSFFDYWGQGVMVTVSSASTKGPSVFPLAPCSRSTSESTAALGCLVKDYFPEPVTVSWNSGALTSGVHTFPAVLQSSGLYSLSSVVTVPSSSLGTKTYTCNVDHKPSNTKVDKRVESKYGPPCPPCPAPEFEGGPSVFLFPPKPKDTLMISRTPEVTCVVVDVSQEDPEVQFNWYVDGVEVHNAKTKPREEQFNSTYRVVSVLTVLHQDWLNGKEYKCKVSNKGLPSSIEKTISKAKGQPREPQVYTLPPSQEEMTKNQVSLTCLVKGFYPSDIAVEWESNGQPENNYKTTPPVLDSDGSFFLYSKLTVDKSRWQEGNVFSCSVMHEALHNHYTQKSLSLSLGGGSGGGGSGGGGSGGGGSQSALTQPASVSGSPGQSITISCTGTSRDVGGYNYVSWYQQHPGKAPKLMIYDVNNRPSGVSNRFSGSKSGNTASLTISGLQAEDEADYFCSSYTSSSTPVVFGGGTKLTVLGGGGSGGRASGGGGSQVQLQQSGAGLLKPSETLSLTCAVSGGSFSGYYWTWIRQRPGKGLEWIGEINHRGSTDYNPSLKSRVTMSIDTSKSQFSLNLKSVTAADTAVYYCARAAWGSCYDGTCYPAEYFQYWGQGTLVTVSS
light: QFVLSQPNSVSTNLGSTVKLSCKRSTGNIGSNYVSWYQQHEGRSPTTMIYRDDKRPDGVPDRFSGSIDRSSDSALLTINNVQTEDEADYFCQSYSSGINIFGGGTKLTVLGQPKAAPSVTLFPPSSEELQANKATLVCLISDFYPGAVTVAWKADSSPVKAGVETTTPSKQSNNKYAASSYLSLTPEQWKSHRSYSCQVTHEGSTVEKTVAPTECS
notes: also called pCI-AVM-hLG4PE(R409K)_MOG01scFv3
In the case of B7, the Kd [13] is reported as 13 nM, the koff [13] is reported as 0.0022 s⁻¹ and the kon [13] is reported as 170000 M⁻¹ s⁻¹. B7: binds [14].

B8: AVM IgG4PE(R409K)_MOG01dscFv5 antibody (bispecific antibody)
heavy: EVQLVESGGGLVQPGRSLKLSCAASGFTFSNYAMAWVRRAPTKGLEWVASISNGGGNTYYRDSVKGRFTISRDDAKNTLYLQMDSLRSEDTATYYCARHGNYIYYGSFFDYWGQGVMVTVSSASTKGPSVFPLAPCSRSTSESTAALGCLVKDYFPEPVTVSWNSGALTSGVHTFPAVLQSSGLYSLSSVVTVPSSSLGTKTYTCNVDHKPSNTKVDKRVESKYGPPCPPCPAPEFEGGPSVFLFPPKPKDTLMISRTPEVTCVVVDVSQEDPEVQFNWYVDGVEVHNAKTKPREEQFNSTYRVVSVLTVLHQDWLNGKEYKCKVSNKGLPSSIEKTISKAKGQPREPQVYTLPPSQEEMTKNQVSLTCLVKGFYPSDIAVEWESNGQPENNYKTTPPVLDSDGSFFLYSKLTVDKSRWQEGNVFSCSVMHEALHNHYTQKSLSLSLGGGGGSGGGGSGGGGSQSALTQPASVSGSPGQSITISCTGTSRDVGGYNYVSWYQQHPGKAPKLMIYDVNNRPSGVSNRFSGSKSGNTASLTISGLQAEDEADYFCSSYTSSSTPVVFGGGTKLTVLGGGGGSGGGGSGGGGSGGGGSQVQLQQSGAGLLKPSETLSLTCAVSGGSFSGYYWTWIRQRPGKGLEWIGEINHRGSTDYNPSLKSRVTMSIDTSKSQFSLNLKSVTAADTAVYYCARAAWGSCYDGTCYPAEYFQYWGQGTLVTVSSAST
light: QFVLSQPNSVSTNLGSTVKLSCKRSTGNIGSNYVSWYQQHEGRSPTTMIYRDDKRPDGVPDRFSGSIDRSSDSALLTINNVQTEDEADYFCQSYSSGINIFGGGTKLTVLGQPKAAPSVTLFPPSSEELQANKATLVCLISDFYPGAVTVAWKADSSPVKAGVETTTPSKQSNNKYAASSYLSLTPEQWKSHRSYSCQVTHEGSTVEKTVAPTECS
notes: also called pCI-AVM-hLG4PE(R409K)_MOG01scFv5
B8 was tested, and the Kd [13] was 24 nM, the koff [13] was 0.0048 s⁻¹ and the kon [13] was 200000 M⁻¹ s⁻¹. B8: binds [14].

B9: AVM IgG4PE(R409K)_MOG01dscFv6 antibody (bispecific antibody)
heavy: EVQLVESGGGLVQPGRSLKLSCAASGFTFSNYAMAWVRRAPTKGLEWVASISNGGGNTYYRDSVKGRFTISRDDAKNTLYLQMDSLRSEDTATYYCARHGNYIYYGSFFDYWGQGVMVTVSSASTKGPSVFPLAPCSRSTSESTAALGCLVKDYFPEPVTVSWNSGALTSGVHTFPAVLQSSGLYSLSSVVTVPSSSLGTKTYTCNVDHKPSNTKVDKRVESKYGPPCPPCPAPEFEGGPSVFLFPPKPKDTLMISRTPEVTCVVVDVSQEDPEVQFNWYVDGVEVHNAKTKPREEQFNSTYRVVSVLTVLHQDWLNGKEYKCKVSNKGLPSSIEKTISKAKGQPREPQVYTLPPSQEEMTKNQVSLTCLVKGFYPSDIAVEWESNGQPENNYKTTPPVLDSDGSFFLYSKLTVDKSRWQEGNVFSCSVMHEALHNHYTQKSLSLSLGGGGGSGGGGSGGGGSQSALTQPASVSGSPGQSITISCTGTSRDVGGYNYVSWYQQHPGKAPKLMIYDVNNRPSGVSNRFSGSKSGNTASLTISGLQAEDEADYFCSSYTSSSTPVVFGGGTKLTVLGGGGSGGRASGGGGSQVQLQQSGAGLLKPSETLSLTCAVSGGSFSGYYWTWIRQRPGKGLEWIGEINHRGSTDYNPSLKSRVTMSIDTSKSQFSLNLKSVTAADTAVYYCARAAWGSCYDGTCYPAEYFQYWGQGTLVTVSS
light: QFVLSQPNSVSTNLGSTVKLSCKRSTGNIGSNYVSWYQQHEGRSPTTMIYRDDKRPDGVPDRFSGSIDRSSDSALLTINNVQTEDEADYFCQSYSSGINIFGGGTKLTVLGQPKAAPSVTLFPPSSEELQANKATLVCLISDFYPGAVTVAWKADSSPVKAGVETTTPSKQSNNKYAASSYLSLTPEQWKSHRSYSCQVTHEGSTVEKTVAPTECS
notes: also called pCI-AVM-hLG4PE(R409K)_MOG01scFv6
B9: binds [14].
